Test results: PMC4267619

What was measured:
YT521-B YTH domain [1] = molecular target: T1, YT521-B YTH domain (Rattus norvegicus, UniProt Q9QY02 347-502); assay: ITC; 20 C; 125 uM RNA into 10 uM protein; 25 mM NaH2PO4, 25 mM NaCl, 10 mM beta-mercaptoethanol, pH 7; ITC and NMR titrations at 20 C, structure at 30 C
YT521-B YTH domain [2] = molecular target: T1, YT521-B YTH domain; assay: ITC; 20 C; 410 uM RNA into 14 uM protein; 25 mM NaH2PO4, 25 mM NaCl, 10 mM beta-mercaptoethanol, pH 7; ITC and NMR titrations at 20 C, structure at 30 C

Binder	Kd (YT521-B YTH domain [1])	Kd (YT521-B YTH domain [2])
UGACAC (ssRNA, N6-methyladenosine at position 3) [5'-UGm6ACAC-3']	100 nM	–
UGACAC (ssRNA) [5'-UGACAC-3']	–	5 µM
